The values below come from patent US20110008345A1 (GlaxoSmithKline, published 2011).

By Kd is commonly meant the free concentration of one partner at which half of the binding sites on the other are occupied at equilibrium, for simple one-to-one binding. What is called koff is the rate constant with which the complex falls apart. One may read the kon as the second-order rate constant of association. As a reminder, the IC50 is the midpoint of a concentration-inhibition curve.

Values joined by “and” are separate entries in the source; they are usually repeats but may differ in a detail not shown here. Equal entries are not always repeated.

Assay [1] concerns the target T1, recombinant E. coli-expressed human IL-13 (human, UniProt P35225 35-146).
T1 construct: made and purified at GSK; also called Interleukin-13; rhIL-13
The assay can be described thus: SPR stoichiometry.

Assay [2] addresses T2, recombinant E. coli-expressed human IL-4 (human, UniProt P05112 25-153).
T2 construct: made and purified at GSK; also called Interleukin-4; rhIL-4
T2 sequence: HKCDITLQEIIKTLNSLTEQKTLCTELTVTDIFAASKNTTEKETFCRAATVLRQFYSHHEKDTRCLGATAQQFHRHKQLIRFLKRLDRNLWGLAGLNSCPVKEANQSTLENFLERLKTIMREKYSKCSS
Put plainly: SPR stoichiometry.

The target in assay [3] is T1, recombinant E. coli-expressed human …. The assay can be described thus: SPR, purified. (Surface plasmon resonance follows binding to a sensor surface in real time, without labels.)
The target of assay [4] is T2, recombinant E. coli-expressed human IL-4. Put plainly: SPR, purified.
The target is the same in assay [5]. The assay can be described thus: SPR exp 1.
In assay [6] the target is T1, recombinant E. coli-expressed human …. The assay can be described thus: SPR exp 1.
The target in assay [7] is T3, recombinant E. coli-expressed cynomolgus IL-13 (cynomolgus, UniProt Q0PW92 21-132).
T3 construct: also called cyno IL-13
Put plainly: SPR.

The target in assay [8] is T4, recombinant E. coli-expressed cynomolgus IL-4 (cynomolgus, UniProt P79339 25-153).
T4 construct: also called cyno IL-4
T4 sequence (looked up): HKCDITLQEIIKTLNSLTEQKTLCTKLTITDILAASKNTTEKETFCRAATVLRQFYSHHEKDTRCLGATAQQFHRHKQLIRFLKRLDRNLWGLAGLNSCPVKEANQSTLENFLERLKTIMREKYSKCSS
The assay can be described thus: SPR.

Assay [9] addresses T1, recombinant E. coli-expressed human …. The assay can be described thus: SPR.
The target of assay [10] is T2, recombinant E. coli-expressed human IL-4. Put plainly: ELISA, IL-4 binding to IL4Ralpha-Fc. For orientation: In an ELISA, binding on a coated surface is turned into a signal by an enzyme label.
Assay [11] has the same target. Put plainly: ELISA.
Assay [12] concerns the target T1, recombinant E. coli-expressed human …. The assay can be described thus: SPR exp 2.
The target in assay [13] is T2, recombinant E. coli-expressed human IL-4. Put plainly: SPR exp 2.
In assay [14] the target is T1, recombinant E. coli-expressed human …. The assay can be described thus: SPR. This is another data set of the same source.
In assay [15] the target is T5, recombinant human VEGF (human, UniProt P15692-4 27-191).
T5 construct: also called VEGF165; hVEGF165
Put plainly: ELISA.

B1: PascoH-G4S-474 (bispecific antibody, human IgG1, kappa)
heavy: not shown
light: DIVLTQSPSSLSASVGDRVTITCKASQSVDYDGDSYMNWYQQKPGKAPKLLIYAASNLESGIPSRFSGSGSGTDFTFTISSLQPEDIATYYCQQSNEDPPTFGQGTKVEIKRTVAAPSVFIFPPSDEQLKSGTASVVCLLNNFYPREAKVQWKVDNALQSGNSQESVTEQDSKDSTYSLSSTLTLSKADYEKHKVYACEVTHQGLSSPVTKSFNRGEC
B1: the Stoichiometry came out at 1.9 in assay [1] and 1.8 in assay [2]. Besides, the dissociation constant (Kd) stood at 0.58 nM in assay [3], 0.036 nM in assay [4], 0.02 nM in assay [5] and 0.67 nM in assay [6]. The koff is 8.6e-05 s⁻¹ in assay [5] and 0.00026 s⁻¹ in [6]. Further, the kon was found to be 5.1e+06 M⁻¹ s⁻¹ in [5] and 390000 M⁻¹ s⁻¹ in assay [6].

B2: PascoH-474 (bispecific antibody, human IgG1, kappa)
heavy: not shown
light: DIVLTQSPSSLSASVGDRVTITCKASQSVDYDGDSYMNWYQQKPGKAPKLLIYAASNLESGIPSRFSGSGSGTDFTFTISSLQPEDIATYYCQQSNEDPPTFGQGTKVEIKRTVAAPSVFIFPPSDEQLKSGTASVVCLLNNFYPREAKVQWKVDNALQSGNSQESVTEQDSKDSTYSLSSTLTLSKADYEKHKVYACEVTHQGLSSPVTKSFNRGEC
notes: also called BPC1000
With B2, the Stoichiometry amounted to 1.9 in [1] and 1.8 in assay [2]. In addition, the Kd in [3] was determined as 0.71 nM; in assay [4] it was 0.037 nM; in assay [5] it was 0.02 nM; in [6] it was 0.84 nM; in assay [7], 18.6 nM; in assay [8], 0.0439 nM. Also, the koff is 9.4e-05 s⁻¹ in assay [5], 0.00031 s⁻¹ in assay [6], 0.0109 s⁻¹ in assay [7] and 8.14e-05 s⁻¹ in [8]. Further, the kon was 4.8e+06 M⁻¹ s⁻¹ in assay [5], 360000 M⁻¹ s⁻¹ in assay [6], 586000 M⁻¹ s⁻¹ in [7] and 1.85e+06 M⁻¹ s⁻¹ in [8].

B3: 586H-210 (bispecific antibody, human IgG1, kappa)
heavy: not shown
light: DIVMTQSPLSLPVTPGEPASISCRSSQNIVHINGNTYLEWYLQKPGQSPRLLIYKISDRFSGVPDRFSGSGSGTDFTLKISRVEADDVGIYYCFQGSHVPWTFGQGTKLEIKRTVAAPSVFIFPPSDEQLKSGTASVVCLLNNFYPREAKVQWKVDNALQSGNSQESVTEQDSKDSTYSLSSTLTLSKADYEKHKVYACEVTHQGLSSPVTKSFNRGEC
Regarding B3, the Kd in assay [9] is 0.44 nM. The IC50 in assay [10] was 26.8 nM.

B4: 586H-ELQLE-210 (bispecific antibody, human IgG1, kappa)
heavy: not shown
light: DIVMTQSPLSLPVTPGEPASISCRSSQNIVHINGNTYLEWYLQKPGQSPRLLIYKISDRFSGVPDRFSGSGSGTDFTLKISRVEADDVGIYYCFQGSHVPWTFGQGTKLEIKRTVAAPSVFIFPPSDEQLKSGTASVVCLLNNFYPREAKVQWKVDNALQSGNSQESVTEQDSKDSTYSLSSTLTLSKADYEKHKVYACEVTHQGLSSPVTKSFNRGEC
Consider B4, for which the Kd in [9] came out at 0.43 nM. Also, the binding result in assay [11] is given as “binds”.

B5: 586H-G4S-210 (bispecific antibody, human IgG1, kappa)
heavy: not shown
light: DIVMTQSPLSLPVTPGEPASISCRSSQNIVHINGNTYLEWYLQKPGQSPRLLIYKISDRFSGVPDRFSGSGSGTDFTLKISRVEADDVGIYYCFQGSHVPWTFGQGTKLEIKRTVAAPSVFIFPPSDEQLKSGTASVVCLLNNFYPREAKVQWKVDNALQSGNSQESVTEQDSKDSTYSLSSTLTLSKADYEKHKVYACEVTHQGLSSPVTKSFNRGEC
With B5, the Kd in assay [9] is 0.42 nM. In addition, the IC50 in assay [10] was 29.9 nM.

B6: 586H-ASTKG-210 (bispecific antibody, human IgG1, kappa)
heavy: not shown
light: DIVMTQSPLSLPVTPGEPASISCRSSQNIVHINGNTYLEWYLQKPGQSPRLLIYKISDRFSGVPDRFSGSGSGTDFTLKISRVEADDVGIYYCFQGSHVPWTFGQGTKLEIKRTVAAPSVFIFPPSDEQLKSGTASVVCLLNNFYPREAKVQWKVDNALQSGNSQESVTEQDSKDSTYSLSSTLTLSKADYEKHKVYACEVTHQGLSSPVTKSFNRGEC
Regarding B6, the Kd in assay [9] amounted to 0.4 nM. Moreover, the IC50 in assay [10] came out at 27.3 nM.

B7: 586H-EPKSC-210 (bispecific antibody, human IgG1, kappa)
heavy: not shown
light: DIVMTQSPLSLPVTPGEPASISCRSSQNIVHINGNTYLEWYLQKPGQSPRLLIYKISDRFSGVPDRFSGSGSGTDFTLKISRVEADDVGIYYCFQGSHVPWTFGQGTKLEIKRTVAAPSVFIFPPSDEQLKSGTASVVCLLNNFYPREAKVQWKVDNALQSGNSQESVTEQDSKDSTYSLSSTLTLSKADYEKHKVYACEVTHQGLSSPVTKSFNRGEC
As to B7, the Kd in [9] worked out at 0.43 nM. The binding result in assay [11] is listed as “binds”.

B8: PascoL-G4S-474 (bispecific antibody, human IgG1, kappa)
heavy: not shown
light: DIVLTQSPSSLSASVGDRVTITCKASQSVDYDGDSYMNWYQQKPGKAPKLLIYAASNLESGIPSRFSGSGSGTDFTFTISSLQPEDIATYYCQQSNEDPPTFGQGTKVEIKRTVAAPSVFIFPPSDEQLKSGTASVVCLLNNFYPREAKVQWKVDNALQSGNSQESVTEQDSKDSTYSLSSTLTLSKADYEKHKVYACEVTHQGLSSPVTKSFNRGECGGGGSGVQLLESGGGLVQPGGSLRLSCAASGFTFAWYDMGWVRQAPGKGLEWVSSIDWHGEVTYYADSVKGRFTISRDNSKNTLYLQMNSLRAEDTAVYYCATAEDEPGYDYWGQGTLVTVSS
Regarding B8, the Stoichiometry in [1] and in [2] was 1.8 throughout. In addition, the dissociation constant (Kd) was 1.2 nM in [3]; 0.028 nM in assay [4]; 0.756 nM and 0.621 nM in assay [12]; 0.063 nM and 0.052 nM in assay [13]. For the same molecule, the koff in [12] is 0.000425 s⁻¹ and 0.000347 s⁻¹; in [13], 0.000135 s⁻¹ and 0.000111 s⁻¹. Moreover, the kon in [12] is 563000 M⁻¹ s⁻¹ and 559000 M⁻¹ s⁻¹; in assay [13], 2.14e+06 M⁻¹ s⁻¹ and 2.13e+06 M⁻¹ s⁻¹.

B9: PascoHL-G4S-474 (bispecific antibody, human IgG1, kappa)
heavy: not shown
light: DIVLTQSPSSLSASVGDRVTITCKASQSVDYDGDSYMNWYQQKPGKAPKLLIYAASNLESGIPSRFSGSGSGTDFTFTISSLQPEDIATYYCQQSNEDPPTFGQGTKVEIKRTVAAPSVFIFPPSDEQLKSGTASVVCLLNNFYPREAKVQWKVDNALQSGNSQESVTEQDSKDSTYSLSSTLTLSKADYEKHKVYACEVTHQGLSSPVTKSFNRGECGGGGSGVQLLESGGGLVQPGGSLRLSCAASGFTFAWYDMGWVRQAPGKGLEWVSSIDWHGEVTYYADSVKGRFTISRDNSKNTLYLQMNSLRAEDTAVYYCATAEDEPGYDYWGQGTLVTVSS
Consider B9, for which the results for the Stoichiometry in assay [1] and in assay [2] were 3.5 and 1.7, respectively. The results for the Kd in assay [3] and in assay [4] were 0.87 nM and 0.035 nM, respectively.

B10: anti-CD20 mAb (antibody, human IgG1, kappa, V domains shown)
VH: QVQLQQPGAELVKPGASVKMSCKASGYTFTSYNMHWVKQTPGRGLEWIGAIYPGNGDTSYNQKFKGKATLTADKSSSTAYMQLSSLTSEDSAVYYCARSTYYGGDWYFNVWGAGTLVTVSS
VL: QIVLSQSPAILSASPGEKVTMTCRASSSVSYIHWFQQKPGSSPKPWIYATSNLASGVPVRFSGSGSGTSYSLTISRVEAEDAATYYCQQWTSNPPTFGGGTKLEIKR
notes: also called Rituxan; anti-CD20 control antibody
Regarding B10, in assay [14], the binding result was “no binding”.

B11: BPC1803 (bispecific antibody, human IgG1, kappa)
heavy: not shown
light: DIVMTQSPLSLPVTPGEPASISCRSSQSIVQSNGDTYLEWYLQKPGQSPQLLIYRVSNRFSGVPDRFSGSGSGTDFTLKISRVEAEDVGVYYCFQGSHVPYTFGQGTKLEIKRTVAAPSVFIFPPSDEQLKSGTASVVCLLNNFYPREAKVQWKVDNALQSGNSQESVTEQDSKDSTYSLSSTLTLSKADYEKHKVYACEVTHQGLSSPVTKSFNRGEC
notes: anti-VEGF tear lipocalin fusion; also called antiIGF1R Heavy Chain-GS-TLPC
As for B11, in [15], the binding result is on record as “binds”.

B12: BPC1804 (bispecific antibody, human IgG1, kappa)
heavy: not shown
light: DIVMTQSPLSLPVTPGEPASISCRSSQSIVQSNGDTYLEWYLQKPGQSPQLLIYRVSNRFSGVPDRFSGSGSGTDFTLKISRVEAEDVGVYYCFQGSHVPYTFGQGTKLEIKRTVAAPSVFIFPPSDEQLKSGTASVVCLLNNFYPREAKVQWKVDNALQSGNSQESVTEQDSKDSTYSLSSTLTLSKADYEKHKVYACEVTHQGLSSPVTKSFNRGEC
notes: anti-VEGF tear lipocalin fusion
With B12, the binding result in assay [15] was “binds”.

B13: PascoL-EPKSC-474 (bispecific antibody, human IgG1, kappa)
heavy: not shown
light: DIVLTQSPSSLSASVGDRVTITCKASQSVDYDGDSYMNWYQQKPGKAPKLLIYAASNLESGIPSRFSGSGSGTDFTFTISSLQPEDIATYYCQQSNEDPPTFGQGTKVEIKRTVAAPSVFIFPPSDEQLKSGTASVVCLLNNFYPREAKVQWKVDNALQSGNSQESVTEQDSKDSTYSLSSTLTLSKADYEKHKVYACEVTHQGLSSPVTKSFNRGECEPKSCDKTHTCPPCPGSGVQLLESGGGLVQPGGSLRLSCAASGFTFAWYDMGWVRQAPGKGLEWVSSIDWHGEVTYYADSVKGRFTISRDNSKNTLYLQMNSLRAEDTAVYYCATAEDEPGYDYWGQGTLVTVSS
Consider B13, for which, in assay [12], the Kd is 0.801 nM and 0.815 nM; the koff is 0.000334 s⁻¹ and 0.000286 s⁻¹; the on-rate constant (kon) was 417000 M⁻¹ s⁻¹ and 351000 M⁻¹ s⁻¹. In assay [13], the Kd was 0.139 nM and 0.127 nM; the koff was 0.000258 s⁻¹ and 0.000318 s⁻¹; the kon was 1.86e+06 M⁻¹ s⁻¹ and 2.51e+06 M⁻¹ s⁻¹.
